Legend:
Gid10^65–284 = molecular target: T1, Gid10^65–284 (S. cerevisiae, UniProt P53242 65-284); experiment: crystal structure
T1 sequence: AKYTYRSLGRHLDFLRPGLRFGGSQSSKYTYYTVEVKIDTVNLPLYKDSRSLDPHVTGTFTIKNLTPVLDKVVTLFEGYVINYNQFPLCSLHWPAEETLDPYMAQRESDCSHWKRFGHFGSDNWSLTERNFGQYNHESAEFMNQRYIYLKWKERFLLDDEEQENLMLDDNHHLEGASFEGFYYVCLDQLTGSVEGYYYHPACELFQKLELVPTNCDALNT

Gid10^57–292 = molecular target: T2, Gid10^57–292 (S. cerevisiae, UniProt P53242 57-292); experiment: ITC
T2 sequence: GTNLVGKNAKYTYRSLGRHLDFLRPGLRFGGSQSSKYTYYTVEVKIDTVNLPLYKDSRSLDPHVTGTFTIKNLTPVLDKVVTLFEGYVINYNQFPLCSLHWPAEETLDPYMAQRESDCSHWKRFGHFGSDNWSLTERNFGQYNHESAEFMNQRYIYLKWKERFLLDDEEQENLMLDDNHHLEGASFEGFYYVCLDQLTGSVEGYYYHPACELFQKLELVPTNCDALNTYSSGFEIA

Row | Binder | binding result (Gid10^65–284) | Kd (Gid10^57–292)
1 | PFITSRPW [Art2 degron peptide PFITSRPW] | binds | 
2 | PFITSRPVAW [Art2 degron peptide PFITSRPVAW] |  | 1.03 µM
